Drawing on article PMC12102759, this text covers screen value for 127 variants.

Sequences and labels used below:
B1: MBOAT1 peptide 17-32 (Lysophospholipid acyltransferase 1), 16-mer library wild type / NSP3 ADRP (ORF1ab Nsp3b ADRP, residues 1023-1192) (parent)
chain 1: STYLHPLSELLGIPLD
chain 2: not shown
B2: ICA1L peptide 451-466 (Islet cell autoantigen 1-like protein), 16-mer library wild type / NSP16 (ORF1ab Nsp16, residues 6799-7088) (parent)
chain 1: QDMSAWFNLFADLDPL
chain 2: SSQAWQPGVAMPNLYKMQRMLLEKCDLQNYGDSATLPKGIMMNVAKYTQLCQYLNTLTLAVPYNMRVIHFGAGSDKGVAPGTAVLRQWLPTGTLLVDSDLNDFVSDADSTLIGDCATVHTANKWDLIISDMYDPKTKNVTKENDSKEGFFTYICGFIQQKLALGGSVAIKITEHSWNADLYKLMGHFAWWTAFVTNVNASSSEAFLIGCNYLGKPREQIDGYVMHANYIFWRNTNPIQLSSYSLFDMSKFPLKLRGTAVMSLKEGQINDMILSLLSKGRLIIRENNRVVI
B3: NEK9 peptide 738-753 (Serine/threonine-protein kinase Nek9), 16-mer library wild type / NSP9 (ORF1ab Nsp9, residues 4141-4253) (parent)
chain 1: SGLSIGTVFQSSSPGG
chain 2: NNELSPVALRQMSCAAGTTQTACTDDNALAYYNTTKGGRFVLALLSDLQDLKWARFPKSDGTGTIYTELEPPCRFVTDTPKGPKVKYLYFIKGLNNLNRGMVLGSLAATVRLQ

In one experiment the parent is B1. Particulars: with NSP3 ADRP (ORF1ab Nsp3b ADRP, residues 1023-1192); bait immobilised on MaxiSorp plates (10 µg), library pre-cleared on GST, 2 h binding at 4 °C, five washes; one round per day, days 1-4; value from days 2 and 3; keep out of graded; scale: average fractional NGS count over selection days 2 and 3.
On to chain 1 S8N, for which the screen value amounted to 0.

For the variant chain 1 T2A, the screen value amounted to 0.000138.

For chain 1 T2S, the screen value is 5.82e-05.

For chain 1 T2V, the screen value worked out at 0.000388.

With chain 1 T2I, the screen value was found to be 2.27e-05.

chain 1 T2W: the screen value came out at 2.61e-05.

Take chain 1 T2E: the screen value was determined as 1.15e-05.

As to chain 1 T2Y, the screen value is 0.00544.

Consider chain 1 T2R, for which the screen value came out at 0.

Regarding chain 1 T2F, the screen value is 0.00217.

Regarding chain 1 T2Q, the screen value turned out to be 4.36e-05.

Regarding chain 1 T2L, the screen value turned out to be 0.000208.

For the variant chain 1 T2H, the screen value came out at 0.000152.

For chain 1 T2K, the screen value amounted to 0.

Turning to chain 1 S1V, the screen value is 0.000869.

As to chain 1 S1G, the screen value amounted to 0.00039.

As for chain 1 S1H, the screen value worked out at 0.000511.

For chain 1 S1F, the screen value turned out to be 0.000157.

Regarding chain 1 S1W, the screen value was determined as 0.000263.

On to chain 1 S1R, for which the screen value stood at 0.

Consider chain 1 S1Y, for which the screen value turned out to be 0.00667.

Consider chain 1 S1I, for which the screen value amounted to 0.000426.

chain 1 S1E: the screen value turned out to be 0.00035.

With chain 1 S1N, the screen value was 0.000536.

For the variant chain 1 S1A, the screen value is 0.000215.

As for chain 1 S1P, the screen value was 0.000375.

For the variant chain 1 S1M, the screen value stood at 9.76e-05.

Regarding chain 1 S1Q, the screen value was determined as 0.000187.

For chain 1 S1T, the screen value was 9.2e-05.

With chain 1 S1D, the screen value was 0.000236.

Regarding chain 1 S1L, the screen value was found to be 0.000154.

As for chain 1 P14M, the screen value worked out at 0.00294.

chain 1 P14D: the screen value worked out at 0.000131.

Turning to chain 1 P14Q, the screen value came to 3.28e-05.

Consider chain 1 P14F, for which the screen value was 0.

As to chain 1 P14S, the screen value came to 1.48e-05.

With chain 1 P14T, the screen value was determined as 0.000186.

Take chain 1 P14I: the screen value is 2.27e-05.

With chain 1 P14E, the screen value was determined as 7.55e-05.

Consider chain 1 P14Y, for which the screen value came out at 1.08e-05.

For the variant chain 1 P14R, the screen value came out at 0.

With chain 1 P14N, the screen value came out at 3.9e-05.

For chain 1 P14G, the screen value turned out to be 0.000153.

On to chain 1 E9N, for which the screen value is 0.

As to chain 1 E9Y, the screen value was found to be 0.

For chain 1 E9T, the screen value came to 0.

chain 1 E9I: the screen value is 0.

Consider chain 1 E9H, for which the screen value is 0.

Turning to chain 1 E9L, the screen value came out at 0.

Turning to chain 1 E9M, the screen value was found to be 0.

Take chain 1 E9S: the screen value came out at 0.

Regarding chain 1 E9R, the screen value was found to be 0.

Take chain 1 E9G: the screen value is 0.

Take chain 1 E9V: the screen value stood at 0.

As for chain 1 Y3A, the screen value was determined as 0.00112.

Consider chain 1 Y3D, for which the screen value was 0.000184.

On to chain 1 Y3G, for which the screen value is 0.000695.

In the case of chain 1 Y3L, the screen value came out at 0.

As to chain 1 Y3I, the screen value was determined as 0.

With chain 1 Y3N, the screen value was found to be 3.37e-05.

For the variant chain 1 Y3H, the screen value was determined as 3.26e-05.

Take chain 1 Y3F: the screen value amounted to 0.

Take chain 1 Y3S: the screen value amounted to 2.54e-05.

In the case of chain 1 Y3E, the screen value was found to be 2.37e-05.

In the case of chain 1 Y3W, the screen value was 0.

With chain 1 Y3T, the screen value was determined as 3.8e-05.

For the variant chain 1 Y3M, the screen value turned out to be 0.000117.

Consider chain 1 L7M, for which the screen value worked out at 0.

Take chain 1 L7A: the screen value worked out at 0.

Turning to chain 1 L7I, the screen value came out at 0.

Variants of B2 are the subject of the next experiment. To be noted: with NSP16 (ORF1ab Nsp16, residues 6799-7088); bait immobilised on MaxiSorp plates (10 µg), library pre-cleared on GST, 2 h binding at 4 °C, five washes; one round per day, days 1-4; value from days 2 and 3; keep out of graded; scale: average fractional NGS count over selection days 2 and 3.
Regarding chain 1 QDASAWFNLFADLDPL [chain 1 M3A], the screen value amounted to 1.55e-05.

Turning to chain 1 QDMSAWFDLFADLDPL [chain 1 N8D], the screen value came out at 6.98e-05.

Turning to chain 1 QDMSAWFSLFADLDPL [chain 1 N8S], the screen value amounted to 2.43e-05.

Consider chain 1 QDMSAWFQLFADLDPL [chain 1 N8Q], for which the screen value is 5.42e-05.

With chain 1 QDMSAWFNLFADLDPS [chain 1 L16S], the screen value was found to be 5.17e-05.

Consider chain 1 QDMSAWFNLFADLDPF [chain 1 L16F], for which the screen value amounted to 2.69e-05.

In the case of chain 1 QDMSAWFNLFADLDPD [chain 1 L16D], the screen value is 3.18e-05.

With chain 1 QDMSAWFNLFADLDPN [chain 1 L16N], the screen value was 2.43e-05.

With chain 1 QDMSAWFNLFADLDPA [chain 1 L16A], the screen value came to 6.04e-05.

In the case of chain 1 QDMSAWFNLFADLLPL [chain 1 D14L], the screen value is 6.11e-05.

Turning to chain 1 QDMSAWFNLFADLHPL [chain 1 D14H], the screen value amounted to 0.

On to chain 1 QDMSAWFNLFADLFPL [chain 1 D14F], for which the screen value stood at 1.57e-05.

Turning to chain 1 QDMSAWFNLFADLRPL [chain 1 D14R], the screen value was 8.06e-05.

Regarding chain 1 QDMSAWFNLFADLAPL [chain 1 D14A], the screen value worked out at 3.47e-05.

For the variant chain 1 QDMSAWFNLFADLGPL [chain 1 D14G], the screen value stood at 1.57e-05.

With chain 1 QDMSAWFNLFADLNPL [chain 1 D14N], the screen value is 6.07e-05.

As to chain 1 QDMSAWFNLFADLSPL [chain 1 D14S], the screen value came out at 6.51e-05.

Turning to chain 1 QDMDAWFNLFADLDPL [chain 1 S4D], the screen value amounted to 6.54e-05.

With chain 1 QDMMAWFNLFADLDPL [chain 1 S4M], the screen value stood at 6.83e-05.

On to chain 1 QDMVAWFNLFADLDPL [chain 1 S4V], for which the screen value was 0.

With chain 1 QDMAAWFNLFADLDPL [chain 1 S4A], the screen value turned out to be 0.

Consider chain 1 QDMSAWFNLFAGLDPL [chain 1 D12G], for which the screen value is 3.31e-05.

chain 1 QDMSAWFNLFANLDPL [chain 1 D12N]: the screen value is 1.88e-05.

On to chain 1 QDMSAWFNLFAQLDPL [chain 1 D12Q], for which the screen value was found to be 5.82e-05.

As for chain 1 QDMSAWFNLFAPLDPL [chain 1 D12P], the screen value was found to be 3.33e-05.

For the variant chain 1 QDMSAWMNLFADLDPL [chain 1 F7M], the screen value is 7.76e-05.

On to chain 1 QDMSAWRNLFADLDPL [chain 1 F7R], for which the screen value is 0.

As for chain 1 QDMSAWVNLFADLDPL [chain 1 F7V], the screen value worked out at 5.76e-05.

Regarding chain 1 QDMSAWSNLFADLDPL [chain 1 F7S], the screen value was determined as 3.52e-05.

Take chain 1 QDMSAPFNLFADLDPL [chain 1 W6P]: the screen value stood at 0.

chain 1 QDMSAVFNLFADLDPL [chain 1 W6V]: the screen value was 0.

As to chain 1 QDMSAWFNLRADLDPL [chain 1 F10R], the screen value came to 0.

For the variant chain 1 QDMSAWFNLHADLDPL [chain 1 F10H], the screen value is 0.

Turning to chain 1 QDMSAWFNTFADLDPL [chain 1 L9T], the screen value was determined as 3.99e-05.

Take chain 1 QDMSAWFNIFADLDPL [chain 1 L9I]: the screen value amounted to 3.31e-05.

For chain 1 QDMSAWFNWFADLDPL [chain 1 L9W], the screen value is 7.05e-05.

Consider chain 1 QDMSAWFNAFADLDPL [chain 1 L9A], for which the screen value turned out to be 0.

With chain 1 QDMSAWFNLFSDLDPL [chain 1 A11S], the screen value was 2.43e-05.

Consider chain 1 QDMSAWFNLFWDLDPL [chain 1 A11W], for which the screen value was found to be 0.

Regarding chain 1 QDMSAWFNLFDDLDPL [chain 1 A11D], the screen value was determined as 0.

As to chain 1 QDMSAWFNLFFDLDPL [chain 1 A11F], the screen value was 1.35e-05.

With chain 1 QDMSLWFNLFADLDPL [chain 1 A5L], the screen value is 1.55e-05.

With chain 1 QDMSGWFNLFADLDPL [chain 1 A5G], the screen value was determined as 6.16e-05.

With chain 1 QDMSSWFNLFADLDPL [chain 1 A5S], the screen value turned out to be 3.33e-05.

Regarding chain 1 QDMSHWFNLFADLDPL [chain 1 A5H], the screen value came out at 2.76e-05.

On to chain 1 QDMSAWFNLFADLDAL [chain 1 P15A], for which the screen value was 1.57e-05.

For the variant chain 1 QDMSAWFNLFADLDFL [chain 1 P15F], the screen value worked out at 0.

Take chain 1 QDMSAWFNLFADLDYL [chain 1 P15Y]: the screen value turned out to be 5.19e-05.

As to chain 1 QDMSAWFNLFADLDEL [chain 1 P15E], the screen value was determined as 0.

As to chain 1 QDMSAWFNLFADLDLL [chain 1 P15L], the screen value amounted to 3.43e-05.

On to chain 1 QDMSAWFNLFADLDWL [chain 1 P15W], for which the screen value is 2.45e-05.

For chain 1 QEMSAWFNLFADLDPL [chain 1 D2E], the screen value is 0.

Variants of B3 are the subject of a further experiment. Particulars: with NSP9 (ORF1ab Nsp9, residues 4141-4253); bait immobilised on MaxiSorp plates (10 µg), library pre-cleared on GST, 2 h binding at 4 °C, five washes; one round per day, days 1-4; value from days 2 and 3; keep out of graded; scale: average fractional NGS count over selection days 2 and 3.
As for chain 1 SGLSIGTVNQSSSPGG [chain 1 F9N], the screen value worked out at 9.97e-05.

Consider chain 1 SGLSIGTVKQSSSPGG [chain 1 F9K], for which the screen value came out at 0.

As for chain 1 SGLSIGTVTQSSSPGG [chain 1 F9T], the screen value worked out at 0.

Regarding chain 1 SGLSIGTVVQSSSPGG [chain 1 F9V], the screen value came out at 0.000209.

In the case of chain 1 SGLSIGTVEQSSSPGG [chain 1 F9E], the screen value was 0.000224.
